Positions count from the first letter of the chain named.
What was measured:
[1] = biological target: T1, SARS-CoV-2 S protein of B.1.617.2 (delta) variant, on pseudotyped MLV particles (SARS-CoV-2, UniProt P0DTC2 14-1273); assay: cell-based or functional assay
[2] = biological target: T2, SARS-CoV-2 S protein of B.1.1.7 (alpha) variant, on pseudotyped MLV particles (SARS-CoV-2, UniProt P0DTC2 14-1273); assay: cell-based or functional assay
[3] = biological target: SARS-CoV-2 S protein of beta variant, on pseudotyped MLV particles (SARS-CoV-2, UniProt P0DTC2 14-1273); assay: cell-based or functional assay
[4] = biological target: SARS-CoV-2 S protein of the wild-type, on pseudotyped lentiviral particles (SARS-CoV-2); assay: cell-based or functional assay
[5] = biological target: SARS-CoV-2 S protein of gamma variant, on pseudotyped MLV particles (SARS-CoV-2, UniProt P0DTC2 14-1273); assay: cell-based or functional assay
[6] = biological target: T3, SARS-CoV-2 S protein of B.1.617 (kappa) variant, on pseudotyped MLV particles (SARS-CoV-2, UniProt P0DTC2 14-1273); assay: cell-based or functional assay
[7] = biological target: T1, SARS-CoV-2 S protein of B.1.617.2 …; assay: cell-based or functional assay; remark: listed apart in the source
[8] = biological target: T2, SARS-CoV-2 S protein of B.1.1.7 (alpha) …; assay: cell-based or functional assay; remark: listed apart in the source
[9] = biological target: T3, SARS-CoV-2 S protein of B.1.617 (kappa) …; assay: cell-based or functional assay; remark: listed apart in the source
[10] = biological target: T4, SARS-CoV-2 RBD, Delta (B.1.617.2) variant (SARS-CoV-2, UniProt P0DTC2 319-541); assay: SPR, RBD immobilised
T4 construct: domain: RBD

[11] = biological target: T5, SARS-CoV-2 RBD, Kappa (B.1.617.1) variant (SARS-CoV-2, UniProt P0DTC2 319-541); assay: SPR, RBD immobilised
T5 construct: domain: RBD

[12] = biological target: T6, SARS-CoV-2 RBD, Gamma (P.1) variant (SARS-CoV-2, UniProt P0DTC2 319-541); assay: SPR, RBD immobilised
T6 construct: domain: RBD

[13] = biological target: T7, SARS-CoV-2 RBD, Beta (B.1.351) variant (SARS-CoV-2, UniProt P0DTC2 319-541); assay: SPR, RBD immobilised
T7 construct: domain: RBD

[14] = biological target: T8, SARS-CoV-2 RBD, Alpha (B.1.1.7) variant (SARS-CoV-2, UniProt P0DTC2 319-541); assay: SPR, RBD immobilised
T8 construct: domain: RBD

[15] = biological target: T4, SARS-CoV-2 RBD, Delta (B.1.617.2) …; assay: competition ELISA: RBD-His with antibody, binding to coated hACE2-Fc
[16] = biological target: T5, SARS-CoV-2 RBD, Kappa (B.1.617.1) …; assay: as above
[17] = biological target: T6, SARS-CoV-2 RBD, Gamma (P.1) variant; assay: as above
[18] = biological target: T7, SARS-CoV-2 RBD, Beta (B.1.351) variant; assay: as above
[19] = biological target: T4, SARS-CoV-2 RBD, Delta (B.1.617.2) …; assay: SPR, RBD immobilised, 1:1 model
[20] = biological target: T5, SARS-CoV-2 RBD, Kappa (B.1.617.1) …; assay: SPR, RBD immobilised, 1:1 model
[21] = biological target: T6, SARS-CoV-2 RBD, Gamma (P.1) variant; assay: SPR, RBD immobilised, 1:1 model
[22] = biological target: T7, SARS-CoV-2 RBD, Beta (B.1.351) variant; assay: SPR, RBD immobilised, 1:1 model
[23] = biological target: T8, SARS-CoV-2 RBD, Alpha (B.1.1.7) variant; assay: SPR, RBD immobilised, 1:1 model
[24] = biological target: SARS-CoV-2 RBD protein (Fc-tagged) (SARS-CoV-2, UniProt P0DTC2 319-541)

B1: K202.A (bispecific antibody)
heavy: EVQLLESGGGLVQPGGSLRLSCAASGFTFSDYAMSWVRQAPGKGLEWVSWIYSGSGNKYYADSVKGRFTISRDNSKNTLYLQMNSLRAEDTAVYYCARFPIARTSNSQSSYDGMDVWGQGTLVTVSSASTKGPSVFPLAPCSRSTSESTAALGCLVKDYFPEPVTVSWNSGALTSGVHTFPAVLQSSGLYSLSSVVTVPSSSLGTKTYTCNVDHKPSNTKVDKRVESKYGPPCPPCPPCPAPEFLGGPSVFLFPPKPKDTLMISRTPEVTCVVVDVSQEDPEVQFNWYVDGVEVHNAKTKPREEQFNSTYRVVSVLTVLHQDWLNGKEYKCKVSNKGLPSSIEKGQPREPQVYTLPPSQEEMTKNQVSLTCLVKGFYPSDIAVEWESNGQPENNYKTTPPVLDSDGSFFLYSRLTVDKSRWQEGNVFSCSVMHEALHNHYTQKSLSLSLGK
light: QSVLTQPPSASGTPGQRVTISCSGSSSNIGSNAVSWYQQLPGTAPKLLIYADNKRPSGVPDRFSGSKSGTSASLAISGLRSEDEADYYCGAWDSSLNAYVFGGGTKLTVLVAAPSVFIFPPSDEQLKSGTASVVCLLNNFYPREAKVQWKVDNALQSGNSQESVTEQDSKDSTYSLSSTLTLSKADYEKHKVYACEVTHQGLSSPVTKSFNRGEC
scFv: EVQLLESGGGLVQPGGSLRLSCAASGFTFSSYDMSWVRQAPGKGLEWVSGISYSGGSTYYADSVKGRFTISRDNSKNTLYLQMNSLRAEDTAVYYCARDVNFVPLVTFDYWGQGTLVTVSSGGGGSGGGGSGGGGSQSVLTQPPSASGTPGQRVTLSCTGSSSNIGSNSVTWYQQLPGTAPKLLIYDDNQRPSGVPDRFSGSKSGTSASLAISGLRSEDEADYYCGTWDYSLSAYVFGGGTKLTVL
How did the “IC50 (nM), pseudotyped virus infection” value [1] turn out when B1 was run?
The value was 1.83 nM.

What about the “IC50 (nM), pseudotyped virus infection” value [2] of the same binder?
Its value is 0.18 nM.

What about the “IC50 (nM), pseudotyped virus infection” value [3] of the same binder?
Its value is 0.46 nM.

What about the “IC50 (nM), pseudotyped virus infection” value [4] of the same binder?
The value was 0.27 nM.

What about the “IC50 (nM), pseudotyped virus infection” value [5] of the same binder?
Its value is 1.74 nM.

What about the “IC50 (nM), pseudotyped virus infection” value [6] of the same binder?
Its value is 0.24 nM.

B2: K202.B (bispecific antibody)
heavy: B1 heavy
light: B1 light
scFv: B1 scFv
What does the source list for B2?
IC50 (nM), pseudotyped virus infection [1]: 0.13 nM; IC50 (nM), pseudotyped virus infection [2]: 0.15 nM; IC50 (nM), pseudotyped virus infection [3]: 0.1 nM; IC50 (nM), pseudotyped virus infection [4]: 0.16 nM; IC50 (nM), pseudotyped virus infection [5]: 1.04 nM; IC50 (nM), pseudotyped virus infection [6]: 0.05 nM

B3: RD3 (antibody, V domains shown)
VH: EVQLLESGGGLVQPGGSLRLSCAASGFTFSDYAMSWVRQAPGKGLEWVSWIYSGSGNKYYADSVKGRFTISRDNSKNTLYLQMNSLRAEDTAVYYCARFPIARTSNSQSSYDGMDVWGQGTLVTVSS
VL: QSVLTQPPSASGTPGQRVTISCSGSSSNIGSNAVSWYQQLPGTAPKLLIYADNKRPSGVPDRFSGSKSGTSASLAISGLRSEDEADYYCGAWDSSLNAYVFGGGTKLTVL
notes: also called K102.1
What does the source list for B3?
IC50 (nM), pseudotyped virus infection [1]: 4.48 nM; IC50 (nM), pseudotyped virus infection [2]: 6.16 nM; IC50 (nM), pseudovirus neutralization, luciferase in 293T/hACE2 cells [7]: 4.48 nM; IC50 (nM), pseudovirus neutralization, luciferase in 293T/hACE2 cells [8]: 6.16 nM; IC50 (nM), pseudovirus neutralization, luciferase in 293T/hACE2 cells [9]: 94.8 nM

B4: RB6 (antibody, V domains shown)
VH: EVQLLESGGGLVQPGGSLRLSCAASGFTFSSYDMSWVRQAPGKGLEWVSGISYSGGSTYYADSVKGRFTISRDNSKNTLYLQMNSLRAEDTAVYYCARDVNFVPLVTFDYWGQGTLVTVSS
VL: B3 VL with I20L, S23T, A33S, S35T, A51D, K54Q, A91T, S94Y, N97S
notes: also called K102.2
Which results are given for B4?
Kd [10]: 1.53 nM; kon [10]: 333000 M⁻¹ s⁻¹; Kd [11]: 1.68 nM; kon [11]: 407000 M⁻¹ s⁻¹; Kd [12]: 2.07 nM; kon [12]: 454000 M⁻¹ s⁻¹; Kd [13]: 1.6 nM; kon [13]: 492000 M⁻¹ s⁻¹; Kd [14]: 3.62 nM; kon [14]: 154000 M⁻¹ s⁻¹; IC50 [15]: 1.14 nM; IC50 [16]: 0.4 nM; IC50 [17]: 3.23 nM; IC50 [18]: 0.86 nM; Kd [19]: 1.53 nM; kon [19]: 333000 M⁻¹ s⁻¹; Kd [20]: 1.68 nM; kon [20]: 407000 M⁻¹ s⁻¹; Kd [21]: 2.07 nM; kon [21]: 454000 M⁻¹ s⁻¹; Kd [22]: 1.6 nM; kon [22]: 492000 M⁻¹ s⁻¹; Kd [23]: 3.62 nM; kon [23]: 154000 M⁻¹ s⁻¹

B5: RG6 (antibody, V domains shown)
VH: EVQLLESGGGLVQPGGSLRLSCAASGFTFSDYSMSWVRQAPGKGLEWVSGIYHSDGSKYYADSVKGRFTISRDNSKNTLYLQMNSLRAEDTAVYYCARFDPVFDYWGQGTLVTVSS
VL: B3 VL with S23T, S35N, N53S, K54N, S94A, N97S
For B5, which IC50 [24] is on record?
The IC50 was 84 nM.
